US20240033318A1 (OHIO STATE INNOVATION FOUNDATION, published 2024)
Non-standard residues stand in square brackets, D forms with d. Primed or numbered codes have the meaning given here. No end group written: not given here. *: point of attachment. FITC′ = fluorescein isothiocyanate (fluorescein label attached to the Lys side chain); FITC″ = fluorescein isothiocyanate, fluorescein thiocarbamoyl on Lys NZ; FITC = O=C1OC2(c3ccc(O)cc3Oc3cc(O)ccc32)c2ccc(NC(=S)*)cc21; Benzoyl(2,3-Cl2) = O=C(c1cccc(Cl)c1Cl)*; Phe(4-F) = N[C@@H](Cc1ccc(F)cc1)C(=O)O; Tle = CC(C)(C)[C@H](N)C(=O)O; acyl = not defined here; Bz = O=C(c1ccccc1)*; βAla = NCCC(=O)O

What was measured:
[1] = target: T1, calcineurin expressed as the glutathione S-transferase fusion protein (GST-CN) (UniProt Q08209 2-347); experiment: FP competition: 15 nM FITC-labeled compound 35 as probe, 15 nM GST-CN, unlabeled inhibitor titrated
T1 construct: also called CN-GST; recombinant GST-CN; not shown: glutathione S-transferase (GST) fusion partner
T1 sequence (Q08209 2-347): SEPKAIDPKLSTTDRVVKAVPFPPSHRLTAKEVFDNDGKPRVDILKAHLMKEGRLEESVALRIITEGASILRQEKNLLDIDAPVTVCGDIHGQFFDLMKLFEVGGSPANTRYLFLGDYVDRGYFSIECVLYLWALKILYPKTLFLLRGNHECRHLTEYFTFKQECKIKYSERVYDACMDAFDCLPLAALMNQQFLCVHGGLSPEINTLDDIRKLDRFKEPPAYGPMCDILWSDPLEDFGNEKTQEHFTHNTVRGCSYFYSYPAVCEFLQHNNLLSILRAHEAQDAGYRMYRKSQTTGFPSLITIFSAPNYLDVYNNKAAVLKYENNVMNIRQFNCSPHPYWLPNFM
Procedure: (§1) Serial dilutions of unlabeled inhibitor were prepared in pH 7.4 PBS containing 0.01% Triton-X100, to which was added the incubation solution and mixed for 1 h at RT. 20 μL aliquots from each concentration were added into 384-well black-on-black microplates and fluorescence polarization was measured using a TECAN Infinite M1000 plate reader. IC50 values were calculated using GraphPad PRISM v. 7.

[2] = target: T1, calcineurin expressed as the …; experiment: fluorescence anisotropy (FA), direct binding of FITC-labeled peptide to GST-CN
Procedure: (§2) Fluorescence Polarization. Fluorescence polarization (FP) experiments were carried out to measure binding affinity in both direct and competitive binding experiments using GST-CN and peptides prepared as mentioned previously. […] Solutions were incubated for 1 h at RT with gentle mixing and then pipetted into black 384-well microplates. Fluorescence polarization was measured on a TECAN Infinite M1000 plate reader and titration curves were fitted using both KaelidaGraph v 3.6 and GraphPad PRISM to the equation: […]

[3] = target: T1, calcineurin expressed as the …; experiment: FP competition (Condition E): 50 nM probe, 50 nM CN-GST, unlabeled compound titrated
Procedure: Binding Affinity. […] Serial dilutions of each unlabeled compound were prepared in pH 7.4 PBS containing 0.01% Triton-X100, to which was added the incubation solution and mixed for 1 hr at RT after which 20 μL sample was pipetted into 384-well black-on-black microplates and fluorescence polarization was measured using a TECAN Infinite M1000 plate reader. IC₅₀ values were calculated using GraphPad PRISM v.

[4] = target: T1, calcineurin expressed as the …; experiment: fluorescence anisotropy (FA), direct binding
mouse plasma proteins = experiment: rapid equilibrium dialysis (RED) of CNI103 in mouse plasma, 37° C., 5 hours, LC/MS/MS
[5] = target: T1, calcineurin expressed as the …; experiment: fluorescence anisotropy (FA), direct binding of FITC-labeled peptide
Procedure: as §2
(§3) Additional characterization of CNI95 (including in vivo evaluation) is currently ongoing.

[6] = target: T1, calcineurin expressed as the …; experiment: FA-based competition (FP): 50 nM FITC-labeled peptide 14 as probe, 100 nM GST-CN, competitor titrated
Procedure: (§4) Serial dilutions of competitor peptides were prepared in PBS with 0.01% Trition-X100 and then added to the incubation solution and equilibrated at RT with gentle mixing for 1 h. Samples were pipetted into 384-well black microplates and FP signal was measured using a TECAN Infinite M1000 plate reader and analyzed using GraphPad PRISM v.6.

[7] = target: T1, calcineurin expressed as the …; experiment: direct binding by FA
Procedure: as §2

[8] = target: T1, calcineurin expressed as the …; experiment: FP competition with FITC-labeled compound 35 for GST-CN
Procedure: as §1

[9] = target: T1, calcineurin expressed as the …; experiment: FA-based competition assay, inhibition of the binding of peptide 14 to CN
Procedure: as §4, §3

B1: compound 46: (DCNA)-Tle-Ile-Psa-Ile-Thr-Gln-His-(D-Leu)-Ser-miniPEG-Lys{[cyclo-(Gln-(D-Arg)-Arg-(D-Arg)-Arg-(2-Nal)-(D-Phe)]}-NH2 (peptide)
peptide: XIXITQHLSKQRRRRXF
modifications: not fully specified; N-terminal DCNA; Tle; Psa = L-penicillamine sulfonic acid; D-Leu; miniPEG; Lys side chain carrying cyclo-(Gln-(D-Arg)-Arg-(D-Arg)-Arg-(2-Nal)-(D-Phe)); C-terminal amide
B1 was tested, and the IC50 [1] was 107 nM.

With Bz-[Tle]I[Tle]ITGPHEEYK(FITC″)-NH2 [peptide 2: benzoyl-ZIZITGPHEEYK(FITC)-NH2] the Kd [2] was 224 nM.

B2: CNI101: (DCNA)-Tle-Ile-Tle-Ile-Thr-Gln-His-(D-Leu)-Ser-miniPEG-Lys{[cyclo-(Gln-(D-Arg)-Arg-(D-Arg)-Arg-(2-Nal)-(D-Phe)]}-NH2 (peptide)
peptide: XIXITQHLSKQRRRRXF
modifications: not fully specified; N-terminal DCNA (2,3-dichlorisonicotinamide; Table 8 prints DCN, 2,3-dichloro-4-pyridinyl); Tle at 1 and 3; D-Leu; miniPEG; Lys side chain carrying cyclo-(Gln-(D-Arg)-Arg-(D-Arg)-Arg-(2-Nal)-(D-Phe)); C-terminal amide
notes: also called compound 41; 41
B2 showed an IC50 [3] of 184 nM and an IC50 [1] of 184 nM.

B3: compound 48: (DFNA)-Tle-Ile-Bhv-Ile-Thr-Gln-His-(D-Leu)-Ser-miniPEG-Lys{[cyclo-(Gln-(D-Arg)-Arg-(D-Arg)-Arg-(2-Nal)-(D-Phe)]}-NH2 (peptide)
peptide: XIXITQHLSKQRRRRXF
modifications: not fully specified; N-terminal DFNA (2,3-difluoroisonicotinamide); Tle; Bhv = L-β-hydroxyvaline; D-Leu; miniPEG; Lys side chain carrying cyclo-(Gln-(D-Arg)-Arg-(D-Arg)-Arg-(2-Nal)-(D-Phe)); C-terminal amide
For B3, the IC50 [1] was 73.5 nM.

Ac-GPHP[Tle]I[Tle]ITGPHEEYK(FITC″)-NH2 [peptide 1: Ac-GPHPZIZITGPHEEYK(FITC)-NH2] was tested, and the Kd [2] was 92 nM.

B4: control: (DCB)-Tle-Ile-Tle-Ile-Thr-Gln-His-(D-Leu)-Ser-(β-Ala)-Lys{[cyclo-(Gln-(D-Arg)-Arg-(D-Arg)-Arg-(2-Nal)-(D-Phe)]}-NH2 (peptide)
peptide: XIXITQHLSXKQRRRRXF
modifications: not fully specified; N-terminal DCB (2,3-dichlorobenzoyl); Tle at 1 and 3; D-Leu; β-Ala; Lys side chain carrying cyclo-(Gln-(D-Arg)-Arg-(D-Arg)-Arg-(2-Nal)-(D-Phe)); C-terminal amide
notes: It is therefore kept as a separate molecule
Binder B4 has an IC50 [3] of 857 nM.

B5: compound 51: (DFNA)-Tle-Chg-Psa-Ile-Thr-Gln-His-(D-Leu)-Ser-miniPEG-Lys{[cyclo-(Gln-(D-Arg)-Arg-(D-Arg)-Arg-(2-Nal)-(D-Phe)]}-NH2 (peptide)
peptide: XXXITQHLSKQRRRRXF
modifications: not fully specified; N-terminal DFNA (2,3-difluoroisonicotinamide); Tle; Chg = L-cyclohexylglycine; Psa = L-penicillamine sulfonic acid; D-Leu; miniPEG; Lys side chain carrying cyclo-(Gln-(D-Arg)-Arg-(D-Arg)-Arg-(2-Nal)-(D-Phe)); C-terminal amide
Work on B5 yielded an IC50 [1] of 96.5 nM.

B6: peptide 10: acyl-ZIZITGPHEEYK(FITC)-NH2 (peptide)
peptide: [Tle]I[Tle]ITGPHEEYK(FITC)-NH2
modifications: not fully specified (N-terminus); printed as acyl-ZIZITGPHEEYK(FITC)-NH2; also: N-terminal acyl group unspecified (halogenated/alkylated benzoyl, drawing only)
With B6 the Kd [2] was 189 nM.

In the case of {Benzoyl(2,3-Cl2)}-[Tle]I[Tle]IT[miniPEG]K(FITC′) [peptide 12: Dcb-ZIZIT-miniPEG-Lys (FITC)], the “fold decrease in binding affinity (relative to peptide 9)” value [4] is reported as 17 fold and the Kd [2] is reported as 700 nM.

B7: CNI103: (DCNA)-Tle-Ile-Bhv-Ile-Thr-Gln-His-(D-Leu)-Ser-miniPEG-Lys{[cyclo-(Gln-(D-Arg)-Arg-(D-Arg)-Arg-(2-Nal)-(D-Phe)]}-NH2 (peptide)
peptide: XIXITQHLSKQRRRRXF
modifications: not fully specified; N-terminal DCNA (2,3-dichlorisonicotinamide; Table 8 prints DCN); Tle at 1; Bhv = L-β-hydroxyvaline at 3 (Table 8 prints Hva); D-Leu; miniPEG; Lys side chain carrying cyclo-(Gln-(D-Arg)-Arg-(D-Arg)-Arg-(2-Nal)-(D-Phe)); C-terminal amide
notes: also called CN103; compound 43
In the case of B7, the % Binding (mouse plasma proteins) is reported as 97.6%, the IC50 [3] is reported as 223 nM and the IC50 [1] is reported as 223 nM.

{Benzoyl(2,3-Cl2)}-[Tle]I[Tle]ITQH[dL]S[βAla]K(FITC″) (also called FITC-labeled peptide 14) [peptide 14: Dcb-ZIZIT-Gln-His-leu-Ser-βAla-Lys (FITC)] showed a Kd [2] of 9.1 nM.

{Benzoyl(2,3-Cl2)}-[Tle]I[Tle]ITQH[dL]H[βAla]K(FITC″) [peptide 15: Dcb-ZIZIT-Gln-His-leu-His-βAla-Lys (FITC)] was tested, and the Kd [2] was 4.7 nM.

B8: peptide 11: acyl-ZIZITGPHEEYK(FITC)-NH2 (peptide)
peptide: [Tle]I[Tle]ITGPHEEYK(FITC)-NH2
modifications: not fully specified (N-terminus); printed as acyl-ZIZITGPHEEYK(FITC)-NH2; also: N-terminal acyl group unspecified (halogenated/alkylated benzoyl, drawing only)
With B8 the Kd [2] was 77 nM.

B9: compound 45: (DCNA)-Tle-Chg-Bhv-Ile-Thr-Gln-His-(D-Leu)-Ser-miniPEG-Lys{[cyclo-(Gln-(D-Arg)-Arg-(D-Arg)-Arg-(2-Nal)-(D-Phe)]}-NH2 (peptide)
peptide: XXXITQHLSKQRRRRXF
modifications: not fully specified; N-terminal DCNA; Tle; Chg = L-cyclohexylglycine; Bhv = L-β-hydroxyvaline; D-Leu; miniPEG; Lys side chain carrying cyclo-(Gln-(D-Arg)-Arg-(D-Arg)-Arg-(2-Nal)-(D-Phe)); C-terminal amide
In the case of B9, the IC50 [1] is reported as 45.6 nM.

B10: CNI95 labeled at the C-terminus with FITC (peptide)
peptide: XIXITQHLSKFXRRRRQ
modifications: not fully specified; sequence of peptide 14 (Dcb-ZIZIT-Gln-His-leu-Ser) conjugated to CPP9, cyclo(fΦRrRrQ), through a miniPEG-Lys linker; FITC at the C-terminus; Z = Tle; D-Leu
notes: also called FITC-labeled CNI95
B10 showed a Kd [5] of 17 nM.

With {Benzoyl(2,3-Cl2)}-[Tle]I[Tle]ITGPHEEYK(FITC″)-NH2 [peptide 9: Dcb-ZIZITGPHEEYK(FITC)-NH2] the Kd [2] was 41 nM.

B11: CNI88 (peptide)
peptide: XIXITYEXGAKFXRRRRQ
modifications: not fully specified; sequence of peptide 13 (Dcb-ZIZIT-Tyr-glu-Fpa-Gly) with cyclic CPP9, cyclo(fΦRrRrQ), attached to the C-terminus through an amide bond and a βAla-Lys linker; Z = Tle; D-Glu; Fpa = …
With B11 the IC50 [6] was 426 nM.

With {Benzoyl(2,3-Cl2)}-[Tle]I[Tle]ITY[dE][Phe(4-F)]G[βAla]K(FITC) [peptide 13: Dcb-ZIZIT-Tyr-glu-Fpa-Gly-βAla-Lys (FITC)] the Kd [2] was 12 nM.

B12: CNI93 (peptide)
peptide: XIXITQHLSXKFXRRRRQ
modifications: not fully specified; sequence of peptide 14 (Dcb-ZIZIT-Gln-His-leu-Ser) with cyclic CPP9, cyclo(fΦRrRrQ), attached to the C-terminus through an amide bond and a βAla-Lys linker; Z = Tle; D-Leu
notes: A biotinylated form was used in the macrophage experiment
With B12 the “fold lower CN-binding affinity (relative to peptide 14)” value [7] was 8 fold and the IC50 [6] was 127 nM.

cyclopentylcarbonyl-[Tle]I[Tle]ITGPHEEYK(FITC″)-NH2 [peptide 3: cyclopentylcarbonyl-ZIZITGPHEEYK(FITC)-NH2] was tested, and the Kd [2] was 357 nM.

B13: compound 44 (CNI104): (DCNA)-Tle-Chg-Bhv-Ile-Thr-Gln-His-(D-Leu)-Ser-βAla-Lys{[cyclo-(Gln-(D-Arg)-Arg-(D-Arg)-Arg-(2-Nal)-(D-Phe)]}-NH2 (peptide)
peptide: XXXITQHLSXKQRRRRXF
modifications: not fully specified; N-terminal DCNA (2,3-dichlorisonicotinamide); Tle; Chg = L-cyclohexylglycine; Bhv = L-β-hydroxyvaline; D-Leu; βAla; Lys side chain carrying cyclo-(Gln-(D-Arg)-Arg-(D-Arg)-Arg-(2-Nal)-(D-Phe)); C-terminal amide
With B13 the “fold higher potency (relative to CNI103)” value [8] was about 5 fold and the IC50 [1] was 44.9 nM.

B14: CNI95 (unlabeled) (peptide)
peptide: XIXITQHLSKFXRRRRQ
modifications: not fully specified; sequence of peptide 14 (Dcb-ZIZIT-Gln-His-leu-Ser) conjugated to CPP9, cyclo(fΦRrRrQ), through a miniPEG-Lys linker; Z = Tle; D-Leu
With B14 the “fold higher potency (relative to CNI93)” value [9] was about 5 fold.

B15: peptide 7: acyl-ZIZITGPHEEYK(FITC)-NH2 (peptide)
peptide: acyl-[Tle]I[Tle]ITGPHEEYK(FITC″)-NH2
modifications: reading uncertain; also: N-terminal acyl: halogenated and/or alkylated benzoyl, not named, printed as peptide 7: acyl-ZIZITGPHEEYK(FITC)-NH2
With B15 the Kd [2] was 32 nM.

B16: peptide 8: acyl-ZIZITGPHEEYK(FITC)-NH2 (peptide)
peptide: acyl-[Tle]I[Tle]ITGPHEEYK(FITC″)-NH2
modifications: reading uncertain; also: N-terminal acyl: halogenated and/or alkylated benzoyl, not named, printed as peptide 8: acyl-ZIZITGPHEEYK(FITC)-NH2
With B16 the Kd [2] was 74 nM.

cyclohexylcarbonyl-[Tle]I[Tle]ITGPHEEYK(FITC″)-NH2 [peptide 4: cyclohexylcarbonyl-ZIZITGPHEEYK(FITC)-NH2] showed a Kd [2] of 207 nM.
